Assay results from patent US5831051, “Receptor for peptide hormones involved in energy homeostasis, and method and compositions for use thereof” (The Rockefeller University, dated 1998).
Where no end group is shown, it is not given here.

How the values were obtained:
[1] = molecular target: T1, recombinant human PACAP/VIP R-2 receptor (human); assay: competitive displacement of 125I-VIP on intact CHL cells expressing the receptor
T1 chain: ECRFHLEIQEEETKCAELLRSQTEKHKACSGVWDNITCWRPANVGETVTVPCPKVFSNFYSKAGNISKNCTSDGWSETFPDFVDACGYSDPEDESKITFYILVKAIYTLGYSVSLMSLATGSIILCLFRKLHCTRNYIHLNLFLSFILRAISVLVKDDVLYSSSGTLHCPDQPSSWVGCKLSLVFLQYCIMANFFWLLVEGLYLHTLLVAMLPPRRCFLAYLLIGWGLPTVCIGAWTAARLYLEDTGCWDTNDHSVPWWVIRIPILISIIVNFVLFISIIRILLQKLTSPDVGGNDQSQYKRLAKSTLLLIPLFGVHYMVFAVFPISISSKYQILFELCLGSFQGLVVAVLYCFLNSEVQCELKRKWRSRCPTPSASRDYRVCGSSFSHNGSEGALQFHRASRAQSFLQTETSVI
Experimental for binding result: (§1) Each peptide concentration prepared in Hank's balanced salt solution containing 20 mM HEPES, pH 7.4, 0.5% BSA and 0.1 mM phenylmethylsulfonyl-fluoride (PMSF) was added in triplicates to intact cells. Following the incubation, the cells were washed two times with ice-cold PBS, lysed with 1N NaOH, and radioactivity measured in gamma counter.

[2] = molecular target: T1, recombinant human PACAP/VIP R-2 receptor; assay: competitive displacement of 125I-PACAP-27 (44 pM) on intact CHL cells expressing the receptor
Experimental: as §1

[3] = molecular target: T1, recombinant human PACAP/VIP R-2 receptor; assay: competitive displacement of 125I-VIP (44 pM) on intact CHL cells expressing the receptor; complete displacement not obtainable
Experimental: as §1
(§2) To further confirm the identity of the receptor, the cDNA was expressed in a chinese hamster lung (CHL) cell line.

[4] = molecular target: T1, recombinant human PACAP/VIP R-2 receptor; assay: competitive displacement of 125I-VIP on intact CHL cells expressing the receptor; complete displacement not obtainable
Experimental: as §1

[5] = molecular target: T1, recombinant human PACAP/VIP R-2 receptor; assay: competitive displacement of 125I-VIP (44 pM) on intact CHL cells expressing the receptor
Experimental: as §1, §2

secretin (ligand)
concentration at which 125I-VIP binding was displaced [1]: 3.8 µM

HADGSFSDEMNTILDNLAARDFINWLIQTKITD (ligand) [glucagon-like peptide-II (GLP-II)]
binding result [1]: no binding

HSDAVFTDNYTRLRKQMAVKKYLNSILN (ligand) [vasoactive intestinal polypeptide (VIP)]
IC50 [2]: ~9 nM
IC50 [3]: ~5.8 nM

HSDGIFTDSYSRYRKQMAVKKYLAAVL (ligand, ends and bridges not checked) [PACAP-27 (pituitary adenylate cyclase activating polypeptide, 27-amino acid peptide)]
IC50 [4]: ~37 nM

HAEGTFTSDVSSYLEGQAAKEFIAWLVKGR (ligand) [glucagon-like peptide-I (GLP-1)]
binding result [1]: no binding

HSDGIFTDSYSRYRKQMAVKKYLAAVLGKRYKQRVKNK (ligand, ends and bridges not checked) [PACAP-38 (pituitary adenylate cyclase activating polypeptide, 38-amino acid peptide)]
IC50 [2]: 4.1 nM
IC50 [5]: 1.8 nM
